Measurements published in publication PMC9746415 (Human Vaccines & Immunotherapeutics, 2022).

Assay type: physicochemical
Conditions: pH 7.4

Substance: In-house rituximab
- SEC-HPLC % mAb Monomer: 99.2%
